Results: US20050032689A1, “Methods for treatment or diagnosis of disease or disorders associated with an APB domain” (New York University, priority 1994, published 2005)

Target: T1, EGF receptor (Homo sapiens, UniProt P00533)
T1 construct: expressed in transfected cells; host or cells: HER14 (NIH 3T3 cells expressing human EGF receptor)
Assay: Binding of GST fusion proteins on glutathione-agarose beads to EGF receptor from HER14 cell lysates, immunoblot
Procedure: FIGS. 2A and 2B. Association of GST-Shc 1-209 with the EGF Receptor (EGFR). A, HER14 lysates from either EGF-stimulated (+) or unstimulated (−) cells (5×10^6 cells) were incubated with 3 μg of GST fusion protein immobilized on glutathione-agarose beads. The bound proteins were washed, subjected to SDS-PAGE, transferred to nitrocellulose and immunoblotted with anti-EGF receptor antibody, anti-C (anti-EGFR). HER14 lysate (4×10^5 cells) was run directly on the gel in lanes 5 and 6. B, unstimulated HER14 lysates (5×10^6 cells) were immunoprecipitated with anti-EGFR antibody (mAb 108). The immobilized receptor was then phosphorylated (+) by the addition of 5 mM MnCl2 and 50 μM ATP or left unphosphorylated (−) by adding MnCl2 alone. Bacterial lysates containing 5 μg of GST, GST-Grb7, and GST-Shc 1-209 were then diluted in 1 ml of 1% Triton X-100 lysis buffer, added to the immobilized receptor and incubated at 4° C. for 90 min. The bound proteins were washed and together with 40 μl of the post-binding supernatant separated by SDS-PAGE and transferred to nitrocellulose. The bound fractions (left panel) and supernatants (right panel) were immunoblotted with anti-GST. FIGS. 4A, 4B, 4C and 4D. Binding of Shc fragments to growth factor receptors. A, schematic diagram illustrating the Shc fragments used in binding studies. Full length murine p52^shc is indicated in (i) while (ii)-(vi) were generated as GST fusion proteins for use in receptor binding studies. B, association of various GST fusion proteins with activated EGF receptor (EGFR). Binding was performed as in FIG. 2A with the exception that all lysates were stimulated with EGF. All studies used 3 μg of fusion proteins except for the Shc SH2 where 10 μg was used. Immunoblotting was performed with anti-phosphotyrosine. C, binding of Shc fusion proteins to NIH 3T3 cells expressing a HER1/2 chimera. This chimera consists of the EGF receptor extracellular binding domain and the intracellular region of HER2/neu. After stimulation of these cells with EGF (200 ng/ml) lysates were prepared and binding as well as blotting studies were performed as in B using anti-phosphotyrosine antibody. D, binding of Shc 1-209 to TrkA. Beads containing 10 μg of GST fusion proteins Shc 1-209, phospholipase C-γ (PLC-γ) SH2 (contains both N and C SH2 domains), or GST alone were added to lysates from 2×10^7 PC12 cells stimulated with 50 ng/ml nerve growth factor (lanes 1, 2, and 4). The binding of the same amount of lysate to 2 μg of anti-TrkA antibody is shown as a positive control and to indicate the position of TrkA on the blot (lane 3). Otherwise, the binding and blotting were performed as in B using anti-phosphotyrosine antibody. […]

EGF receptor binding compared with the Shc SH2 domain (3 μg fusion protein vs 10 μg Shc SH2, EGF-stimulated lysates): comparable or superior
B1: Shc 1-209: Shc amino terminus, first 209 amino acids of murine p52Shc, generated as a GST fusion protein (protein, UniProt P98083 1-209, looked up, fragment)
chain: MDLLPPKPKYNPLRNESLSSLEEGASGSTPPEELPSPSASSLGPILPPLPGDDSPTTLCSFFPRMSNLKLANPAGGRLGPKGEPGKAAEDGEGSAGAALRDSGLLPLLQDMNKLSGGGGRRTRVEGGQLGGEEWTRHGSFVNKPTRGWLHPNDKVMGPGVSYLVRYMGCVEVLQSMRALDFNTRTQVTREAISLVCEAVPGAKGATRRR
modifications: GST fusion
notes: Shc amino terminus, first 209 amino acids of murine p52Shc, generated as a GST fusion protein
binding to EGF receptor (GST fusion protein, lysates of EGF-stimulated or unstimulated cells): bound only to the activated tyrosine-phosphorylated receptor
